Experimental data reported in US8440788B2, “N-terminal VDAC variants and uses thereof” (Ben-Gurion University of The Negev Research and Development …, priority 2006, dated 2013).

Key:
[1] = system: hVDAC1-shRNA-T-REx-293 cells; test: Apoptosis induced by various stimuli in cells expressing native or truncated mVDAC1; assay type: cell-based, human; conditions: for cell death in cells expressing native mVDAC1: hVDAC1-shRNA-T-REx-293 cells expressing mVDAC1
Method: (§1) Apoptotic cell death was analyzed by Acridine Orange/Ethidium Bromide staining.
(§2) T-REx-293 cells correspond to a transformed primary human embryonal kidney cell line, expressing the tetracycline repressor. hVDAC1-shRNA T-REx-293 cells stably expressing the pSUPERretro plasmid encoding shRNA targeting hVDAC1 were obtained and grown as described previously (Abu-Hamad et al. (2006), supra). […] Cell viability was analyzed by staining with acridine orange and ethidium bromide in PBS (Zaid et al. (2005). Cell death and differentiation, 12, 751-760). Images were recorded using Zeiss LSM510 confocal or Olympus IX51 fluorescence microscopes. Mitochondria preparation and measurements of ATP levels and Ca^+ accumulation were carried out as previously described (Abu-Hamad et al. (2006), supra).

[2] = target: Bcl2 (Homo sapiens, UniProt P10415); test: Real time surface plasmon resonance, immobilized Bcl2; assay type: binding; conditions: SPR, increasing peptide concentrations
Method: (§3) Surface plasmon resonance (SPR) using the ProteOn-XPR36 (Bio-Rad, USA) system was employed to study the interaction of VDAC1 N-terminal peptides with purified HK-I and Bcl2. Purified rat brain HK-I, recombinant Bcl2 and rabbit IgG were immobilized on a CM5 sensor surface according to the manufacture's instructions. N-terminal VDAC1 peptides were diluted in running buffer (150 mM NaCl, 0.005% Tween-20, 4% (V/V) DMSO, 10 mM PBS, pH, 7.4) and injected onto the sensor chip at varying concentrations at a flow rate of 40 μl/min at 25° C.

[3] = target: T1, HK-I (Rattus norvegicus, UniProt P05708); test: Real time surface plasmon resonance, immobilized HK-I; assay type: binding; conditions: SPR, increasing peptide concentrations
T1 construct: Purified rat brain HK-I; from tissue; host or cells: rat brain
T1 sequence (P05708 1-918): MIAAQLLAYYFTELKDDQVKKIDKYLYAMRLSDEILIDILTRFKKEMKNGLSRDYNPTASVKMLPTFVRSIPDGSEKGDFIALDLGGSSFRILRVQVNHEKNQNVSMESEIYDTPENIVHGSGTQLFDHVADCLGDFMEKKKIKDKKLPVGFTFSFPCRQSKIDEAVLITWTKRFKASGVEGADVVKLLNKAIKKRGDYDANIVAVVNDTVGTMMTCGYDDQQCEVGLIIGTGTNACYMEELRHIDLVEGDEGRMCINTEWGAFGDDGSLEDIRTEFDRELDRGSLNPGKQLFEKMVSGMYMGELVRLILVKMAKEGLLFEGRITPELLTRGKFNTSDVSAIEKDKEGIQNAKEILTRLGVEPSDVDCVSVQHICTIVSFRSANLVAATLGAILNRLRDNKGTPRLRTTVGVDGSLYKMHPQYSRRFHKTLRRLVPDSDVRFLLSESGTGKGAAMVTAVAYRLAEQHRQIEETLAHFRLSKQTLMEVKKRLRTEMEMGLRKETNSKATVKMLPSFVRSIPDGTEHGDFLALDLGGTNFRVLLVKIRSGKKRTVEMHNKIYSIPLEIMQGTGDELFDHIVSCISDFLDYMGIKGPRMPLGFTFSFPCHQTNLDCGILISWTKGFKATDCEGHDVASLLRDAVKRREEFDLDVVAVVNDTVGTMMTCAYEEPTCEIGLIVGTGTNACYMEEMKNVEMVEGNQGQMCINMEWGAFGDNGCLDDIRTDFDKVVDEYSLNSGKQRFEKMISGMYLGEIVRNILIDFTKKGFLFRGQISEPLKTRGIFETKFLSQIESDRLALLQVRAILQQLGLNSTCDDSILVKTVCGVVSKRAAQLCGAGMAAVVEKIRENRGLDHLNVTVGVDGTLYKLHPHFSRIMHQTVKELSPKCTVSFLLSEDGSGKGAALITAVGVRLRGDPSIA
Method: as §3

[4] = system: IgG; test: Real time surface plasmon resonance, immobilized IgG (control); assay type: binding, rabbit; conditions: SPR control
Method: as §3

[5] = system: hVDAC1-shRNA-T-REx-293 cells; test: Restoration of cell growth in T-REx-293 cells silenced for hVDAC1; assay type: cell-based, human; conditions: expression under tetracycline control; Trypan-Blue counting
Method: as §2

[6] = Channel conductance of purified VDAC reconstituted into planar lipid bilayer; assay type: biochemical
Method: (§4) Briefly, PLB were prepared from soybean asolectin dissolved in n-decane (50 mg/ml) in a chamber containing 10 mM Hepes/KOH, pH 7.4 and 0.5 or 1M NaCl (cis/trans). Only PLBs with a resistance greater than 100 GΩ were used. Purified VDAC (about 1 ng) was added to the chamber defined as the cis side. After insertion of one or more channels into the PLB, excess protein was removed by perfusion of the cis chamber with 20 volumes of a same solution. Currents were recorded under voltage-clamp mode using a Bilayer Clamp amplifier (Warner Instruments, Hamden, Conn.). Currents were measured with respect to the trans side of the membrane (ground). The currents were low-pass filtered at 1 kHz, using a Bessal filter (Frequency Devices, Haverhill, Mass.) and digitized on-line using a Digidata 1200 interface board and pCLAMP 6 software (Axon Instruments). Sigma Plot 2000 scientific software was used for data analyses. Experiments were performed at 23-25° C.

[7] = system: T-REx-293 cells silenced for hVDAC1 expression; test: Cell death triggered by tetracycline-induced over-expression; assay type: cell-based, human; conditions: over-expression induced by 2.5 μg/ml tetracycline
Method: as §1, §2

[8] = system: hVDAC1-shRNA T-REx-293 cells; test: Cytochrome c release induced by staurosporine (STS); assay type: cell-based, human; conditions: STS (1.25 μM) for 5 h; Western blotting
Method: Seventy-two hours later, cells were exposed to STS (1.25 μM) for 5 h. Cells were harvested, washed twice with PBS, incubated on ice for 1 h in extraction buffer (200 mM manitol, 70 mM sucrose, 1 mM EGTA, 1 mM EDTA, 10 μg/ml leupeptine, 1 mM PMSF, 1 mg/ml BSA, 10 mM HEPES, pH 7.5) and then lysed with a Dounce homogenizer by 25 strokes. Homogenates were centrifuged (1000×g) at 4° C. for 10 min and the supernatants were re-centrifuged at 15,000×g for 30 min at 4° C. Aliquots (10 μl) of the resultant supernatants, designated as the cytosolic fraction, were immediately boiled in SDS-PAGE sample buffer and resolved by SDS-PAGE on Tris-Tricine gels (13% polyacrylamide) and immunoblotted using monoclonal anti-cytochrome c antibodies. To rule out mitochondrial contamination of the cytosolic fraction, the presence of VDAC was tested by immunoblotting. Although supernatants from the different treated cultures were derived from equal number of cells, protein concentration in the total cells lysates were estimated as well as, actin levels were analyzed by immunoblotting using anti-actin antibodies.

[9] = target: T1, HK-I; test: Effect of HK-I on channel activity of bilayer-reconstituted VDAC1; assay type: biochemical; conditions: HK-I (28 mU/ml), voltage step 0 to +40 mV
Method: as §4

Bcl2, sequence (P10415 whole entry, species assumed): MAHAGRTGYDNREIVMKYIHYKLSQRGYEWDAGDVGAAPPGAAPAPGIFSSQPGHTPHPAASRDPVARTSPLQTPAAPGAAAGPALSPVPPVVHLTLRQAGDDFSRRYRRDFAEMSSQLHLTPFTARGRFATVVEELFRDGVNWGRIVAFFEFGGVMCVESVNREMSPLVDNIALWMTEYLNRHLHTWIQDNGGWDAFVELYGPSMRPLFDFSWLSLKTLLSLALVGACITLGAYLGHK

In the case of `O=[As]O[As]=O` (stereo not shown) [As2O3], the “cell death in cells expressing native mVDAC1” value [1] is reported as “induced death”.

With “VDAC1 N-terminal peptide: a peptide corresponding to the N-terminal region of VDAC1 (MAVPPTYADLGKSARDVFTKGYGFGL)” the “binding to immobilized Bcl2” value [2] was “strongly bound”, the “binding to immobilized HK-I” value [3] was “strongly bound” and the “binding to IgG-immobilized chip” value [4] was “no signal”.

For `CN[C@@H]1C[C@H]2O[C@@](C)([C@@H]1OC)n1c3ccccc3c3c4c(c5c6ccccc6n2c5c31)C(=O)NC4` [Staurosporine], the “cell death in cells expressing native mVDAC1” value [1] was “induced death”.

With `COc1cc(/C=C/C(=O)CC(=O)/C=C/c2ccc(O)c(OC)c2)ccc1O` [curcumin] the “cell death in cells expressing native mVDAC1” value [1] was “induced death”.

In the case of “LP3: VDAC1-based peptide representing a loop (E157 to T174, 18 amino acids) predicted to face the intermembranal space (ETAKSRVTQSNFAVGYKT)”, the “binding to immobilized Bcl2” value [2] is reported as “did not interact” and the “binding to immobilized HK-I” value [3] is reported as “did not interact”.

B1: Δ(1-26)mVDAC1: N-terminal truncated mouse VDAC1 polypeptide lacking amino acids 1-26 (protein)
chain: IKLDLKTKSENGLEFTSSGSANTETTKVNGSLETKYRWTEYGLTFTEKWNTDNTLGTEITVEDQLARGLKLTFDSSFSPNTGKKNAKIKTGYKREHINLGCDVDFDIAGPSIRGALVLGYEGWLAGYQMNFETSKSRVTQSNFAVGYKTDEFQLHTNVNDGTEFGGSIYQKVNKKLETAVNLAWTAGNSNTRFGIAAKYQVDPDACFSAKVNNSSLIGLGYTQTLKPGIKLTLSALLDGKNVNAGGHKLGLGLEFQA
In the case of B1, the “sensitivity of expressing cells to induced apoptosis” value ([1]; curcumin (100 μM), As2O3 (60 μM) or STS (1.25 μM)) is reported as “resistant”, the “cell growth in cells silenced for hVDAC1” value [5] is reported as “restored cell growth” and the maximal conductance ([6]; at 1M NaCl) is reported as 4 nS. For the same molecule, the “voltage dependence of conductance” value ([6]; planar lipid bilayer, FIG. 4) was “no voltage dependence”, the “cell death on over-expression” value [7] was “continue to grow over 8 days” and the apoptotic cell death ([7]; over 8 days) was 5-8%. For the same molecule, the “cytochrome c release into the cytosol” value [8] was “no cytochrome c release” and the “effect of HK-I on channel activity” value [9] was “no effect”.
